In patent US20170107282A1 (CELL MEDICA SWITZERLAND, published 2017):

Key:
[1] = target: T1, recombinant human lymphotoxin α2/β1 (R&D systems, cat. No 679-TX-010/CF) (human, UniProt P01374 35-205; Q06643 49-244, limits assumed); assay: direct ELISA, protein coated
T1 construct: Bought heterotrimer; also called human lymphotoxin alpha2/beta1
T1 sequence (looked up) 1: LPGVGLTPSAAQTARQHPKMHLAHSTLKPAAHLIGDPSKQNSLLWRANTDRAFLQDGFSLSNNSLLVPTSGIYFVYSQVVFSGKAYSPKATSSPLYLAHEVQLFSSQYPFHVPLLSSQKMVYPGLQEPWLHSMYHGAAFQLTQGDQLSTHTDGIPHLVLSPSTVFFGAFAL
T1 sequence (looked up) 2: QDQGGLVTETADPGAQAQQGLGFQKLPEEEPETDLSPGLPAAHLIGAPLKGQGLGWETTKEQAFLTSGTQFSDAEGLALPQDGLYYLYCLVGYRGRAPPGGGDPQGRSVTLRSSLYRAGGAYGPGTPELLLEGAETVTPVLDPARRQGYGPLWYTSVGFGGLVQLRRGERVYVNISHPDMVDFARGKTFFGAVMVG
Procedure: (§1) The cross-reactivity profile of the five selected scFvs to TNF alpha homologs of other species than human beings was assessed using ELISA. The following recombinantly expressed TNF alpha proteins were investigated: rhesus macaque (R&D Systems, USA, cat. no. 1070-RM-025/CF), cynomolgus monkey (Sinobiological, cat.no. 90018 CNAE), canine (Kingfisher Biotech, USA, cat. no. RP0261D-025) and feline (R&D systems, cat. No, 2586FTCF), rabbit (Kingfisher, cat. no RPO429U), rat (Peprotech, cat. no 400-14) murine (Peprotech, cat. no 315-01A), guinea pig (R&D Systems, cat. no 5035-TG-025/CF), porcine (R&D Systems, cat. no 690-PT-025/CF). Briefly, proteins were coated at a concentration of 2 mcg/mL over night at 4° C. on Maxisorp 96-well microplates in PBS pH 7.2. After blocking with 5% non-fat dry milk, increasing concentrations of scFv (0.1, 0.3 and 1.0 mcg/mL) were added to the wells. Successful coating of every protein was separately confirmed with TNF alpha-specific control antibodies. Whereas scFv1 was detected by Protein L-HRP (Sigma-Aldrich, USA, cat. no. P3226), the full-length IgG control antibodies were detected by either Streptavidin-HRP (BD Pharmingen, USA, cat. no. 554060) or other eligible secondary antibodies labelled with HRP. The ELISA was developed with BM Blue POD substrate (Roche Applied Science) and the absorbance was measured at 450 nm. The cross-reactivity of scFvs 1-5 was compared to the scFv DLX2481. […] The scFv DLX2481 recognized only recombinant human TNF alpha. In addition, the cross-reactivity of scFv1 to TNF family members was measured by a direct ELISA with coated recombinant human lymphotoxin α2/β1 (R&D systems, USA, cat. No 679-TX-010/CF), recombinant human lymphotoxin α2/β1 (R&D systems, cat. No 678-LY-010/CF), recombinant human CD40 ligand/TNFSF5 (R&D systems, cat. No. 6420-CL-025/CF) and recombinant human TNF beta/TNFSF1 (R&D systems, cat.

[2] = target: T2, recombinant human lymphotoxin α2/β1 (R&D systems, cat. No 678-LY-010/CF) (human, UniProt P01374 35-205; Q06643 49-244, limits assumed); assay: direct ELISA, protein coated
T2 construct: This second one is probably α1/β2, so copy numbers are left open; also called second lymphotoxin preparation
T2 sequence (looked up) 1: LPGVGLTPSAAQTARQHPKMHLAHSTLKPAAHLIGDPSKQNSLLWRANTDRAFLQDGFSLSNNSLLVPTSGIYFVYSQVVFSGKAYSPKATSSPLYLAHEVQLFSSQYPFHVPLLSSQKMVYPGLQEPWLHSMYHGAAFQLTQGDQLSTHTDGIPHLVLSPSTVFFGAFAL
T2 sequence (looked up) 2: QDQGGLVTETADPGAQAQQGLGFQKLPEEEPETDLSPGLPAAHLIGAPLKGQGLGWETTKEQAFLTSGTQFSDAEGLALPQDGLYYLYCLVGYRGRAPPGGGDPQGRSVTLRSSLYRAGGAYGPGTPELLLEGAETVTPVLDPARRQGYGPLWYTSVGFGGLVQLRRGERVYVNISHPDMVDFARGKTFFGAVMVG
Procedure: as §1

[3] = target: T3, recombinant human CD40 ligand/TNFSF5 (human, UniProt P29965 108-261, limits assumed); assay: direct ELISA, protein coated
T3 construct: Bought protein; also called R&D systems cat; No. 6420-CL-025/CF
T3 sequence (looked up): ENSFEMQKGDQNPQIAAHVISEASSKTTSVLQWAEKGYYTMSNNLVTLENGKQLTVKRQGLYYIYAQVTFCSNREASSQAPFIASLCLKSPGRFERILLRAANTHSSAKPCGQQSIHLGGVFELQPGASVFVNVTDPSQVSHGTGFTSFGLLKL
Procedure: as §1

[4] = target: T4, recombinant human TNF beta/TNFSF1 (human, UniProt P01374 35-205, limits assumed); assay: direct ELISA, protein coated
T4 construct: Bought protein; also called R&D systems cat; No. 211-TB-010/CF
T4 sequence (looked up): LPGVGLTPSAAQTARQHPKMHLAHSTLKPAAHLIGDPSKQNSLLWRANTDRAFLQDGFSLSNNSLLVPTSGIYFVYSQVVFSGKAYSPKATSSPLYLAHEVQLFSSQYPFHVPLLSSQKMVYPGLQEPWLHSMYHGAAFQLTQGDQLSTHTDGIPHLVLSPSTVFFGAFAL
Procedure: as §1

feline TNF alpha = target: T5, feline TNF alpha (feline, UniProt P19101 77-233); assay: ELISA, TNF alpha protein coated, Protein L-HRP detection
T5 construct: Bought protein; also called R&D systems cat; No 2586FTCF
T5 sequence (P19101 77-233 limits assumed): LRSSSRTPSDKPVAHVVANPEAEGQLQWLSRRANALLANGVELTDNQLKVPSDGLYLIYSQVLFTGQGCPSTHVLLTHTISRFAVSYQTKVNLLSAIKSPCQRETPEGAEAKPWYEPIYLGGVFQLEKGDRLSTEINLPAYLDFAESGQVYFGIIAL
Procedure: as §1

[5] = target: T6, cynomolgus monkey TNF alpha (cynomolgus monkey, UniProt P79337 77-233); assay: as above
T6 construct: Bought protein; also called Sinobiological cat. no; 90018 CNAE
T6 sequence (P79337 77-233 limits assumed): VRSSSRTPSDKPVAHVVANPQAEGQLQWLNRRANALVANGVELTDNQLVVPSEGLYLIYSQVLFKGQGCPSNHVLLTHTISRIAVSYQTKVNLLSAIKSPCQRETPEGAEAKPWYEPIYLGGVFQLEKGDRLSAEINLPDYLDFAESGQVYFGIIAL
Procedure: as §1

rhesus macaque TNF alpha = target: T7, rhesus macaque TNF alpha (rhesus macaque, UniProt P48094 77-233); assay: as above
T7 construct: Bought protein; also called R&D Systems cat. no; 1070-RM-025/CF
T7 sequence (P48094 77-233 limits assumed): as the sequence (P79337 77-233 limits assumed) above, with V37L counted along it
Procedure: as §1

canine TNF alpha = target: T8, canine TNF alpha (canine, UniProt P51742 77-233); assay: as above
T8 construct: Bought protein; also called dog TNF alpha; Kingfisher Biotech cat. no; RP0261D-025
T8 sequence (P51742 77-233 limits assumed): as the sequence (P19101 77-233 limits assumed) above, with L1V, R2K, K49I, T65K, A109T, T134A, A140N counted along it
Procedure: as §1

[6] = target: transmembrane (tm) human TNF alpha, A1-12 variant, on CHO cells (human, UniProt P01375 1-233); assay: cell-based or functional assay
Chain of transmembrane (tm) human TNF alpha, A1-12 variant, on CHO cells (P01375 other isoform, or with tags, fused parts or gaps mutant limits assumed): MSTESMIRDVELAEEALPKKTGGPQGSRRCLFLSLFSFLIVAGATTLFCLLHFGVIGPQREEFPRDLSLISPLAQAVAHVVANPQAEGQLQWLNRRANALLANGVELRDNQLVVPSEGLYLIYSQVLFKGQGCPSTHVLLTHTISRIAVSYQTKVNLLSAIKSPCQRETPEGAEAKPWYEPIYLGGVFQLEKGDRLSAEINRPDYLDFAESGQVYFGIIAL

[7] = target: recombinant human (rh) TNF alpha (human, UniProt P01375 77-233, limits assumed); assay: cell-based or functional assay
Chain of recombinant human (rh) TNF alpha (P01375 77-233 limits assumed): as the sequence (P79337 77-233 limits assumed) above, with V37L, T44R, N72T, L138R counted along it

Binder | binding result [1] | binding result [2] | binding result [3] | binding result [4] | binding result (feline TNF alpha) | binding result [5] | binding result (rhesus macaque TNF alpha) | binding result (canine TNF alpha) | IC50, inhibition of tmTNF alpha activity on HEK-Dual TNF alpha-sensitive reporter cells (luciferase) [6] [nM] | IC50, inhibition of rhTNF alpha (1.4 pM) cytotoxicity on PK-15 cells [7] [pM]
scFv1 (scFv) scFv: EIVMTQSPSTLSASVGDRVIITCQASQSISSYLAWYQQKPGKAPKLLIYWASTLASGVPSRFSGSGSGTEFTLTISSLQPDDFATYYCQSYYYTSNNSDGFWAFGQGTKLTVLGGGGGSGGGGSGGGGSGGGGSEVQLVESGGGLVQPGGSLRLSCKASGIDFSNSGITWVRQAPGKGLEWVGYIYPGFGIRNYANSVRGRFTISRDTSKNTVYLQMNSLRAEDTAVYYCARDPIYASSSGYADIWGQGTLVTVSS | no binding (tested: 40 nM) | no binding (tested: 40 nM) | no binding (tested: 40 nM) | no binding (tested: 40 nM) | binds | binds | binds | binds | 50 | 30
positive control scFv DLX105 (scFv) scFv: MADIVMTQSPSSLSASVGDRVTLTCTASQSVSNDVVWYQQRPGKAPKLLIYSAFNRYTGVPSRFSGRGYGTDFTLTISSLQPEDVAVYYCQQDYNSPRTFGQGTKLEVKRGGGGSGGGGSGGGGSSGGGSQVQLVQSGAEVKKPGASVKVSCTASGYTFTHYGMNWVRQAPGKGLEWMGWINTYTGEPTYADKFKDRFTFSLETSASTVYMELTSLTSDDTAVYYCARERGDAMDYWGQGTLVTVSS |  |  |  |  |  |  |  |  | 32 | 260
